The Kd is the free concentration of one partner at which half of the binding sites on the other are occupied at equilibrium, for simple one-to-one binding.

1 molecule from publication PMC3984256 (2014) can be followed below.

For assay [1], the target named is T1, Recombinant PCNA (proliferating cell nuclear antigen) (human, UniProt P12004 1-261). Briefly: SPR; 1000 nM caPep.
Assay [2] deals with T1, Recombinant PCNA (proliferating cell …). Briefly: SPR; 500 nM caPep. On the technique in general: In SPR one partner is held on a chip, and binding of the other changes the refractive index at the surface.
For assay [3] the target is unchanged. As to the kind of experiment: SPR; 0 nM caPep.

T1 sequence (P12004 whole entry): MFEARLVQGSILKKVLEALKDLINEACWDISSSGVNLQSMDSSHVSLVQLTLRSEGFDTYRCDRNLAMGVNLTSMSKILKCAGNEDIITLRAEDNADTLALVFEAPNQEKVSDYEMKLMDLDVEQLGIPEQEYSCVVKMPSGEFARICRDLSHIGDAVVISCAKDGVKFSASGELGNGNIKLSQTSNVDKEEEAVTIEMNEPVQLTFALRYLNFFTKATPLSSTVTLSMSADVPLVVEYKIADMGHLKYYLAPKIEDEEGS

Take SKSRQGSTQGRLDDFF [FEN1 peptide containing the PIP-box]: the results for the equilibrium dissociation constant (Kd) in assay [1], in assay [2] and in assay [3] were 250 µM, 3.33 µM and 0.0846 µM, respectively.
